Assay results published in US7345026.
Read-outs that look alike come from different tables or passages of the source.

Molecular target: HLA-A2.1 molecules on T2 (TAP-, HLA-A2.1+) cells (human)
Test: T2 cells, peptide binding by surface HLA-A2.1 (BB7.2) flow cytometry; ratio of concentrations reaching 20% of maximal binding

| RA (relative affinity) (ratio to HIV 1 rt.476 reference peptide) | RA (relative affinity) (ratio to HIV 1 rt.476 reference peptide) (remark: other sources report otherwise) | Binder |
| --- | --- | --- |
| 1.52 |  | VLPDVFIRC (modifications not checked) [NA17-A nt38-64 epitopic peptide] |
|  | 0.91 | RMPEAAPPV [p53 65-73 epitopic peptide] |
